Laboratory results reported in paper PMC6450946.
Values belong to the molecule of their own block, whether it stands above or below them.

Key:
[1] = target: SRM-HtrM fusion protein (H. marismortui SRM and HtrM joined by a flexible linker) expressed in H. salinarum (Haloarcula marismortui); assay: SDS-PAGE and Western blot; lysate of transformed H. salinarum (cells lysed in distilled water, sonicated); detection with Penta-His HRP conjugate
[2] = target: HtrI, cognate transducer of SRI from Haloarcula marismortui, as part of the HmSRI-HtrI fusion protein (Haloarcula marismortui)
[3] = target: HtrM, cognate transducer of SRM from Haloarcula marismortui, as the C-terminal part of the SRM-HtrM fusion protein (Haloarcula marismortui)

stoichiometry N [1]: 2
Molecule: SRM-HtrM fusion protein (H. marismortui SRM and HtrM joined by a flexible linker) expressed in H. salinarum

Photocycle kinetics (Tau value) of detergent-solubilized HmSRI-HtrI fusion, acidic (pH 6.1-6.5) [2]: 2.38 s
Photocycle kinetics (Tau value) of detergent-solubilized HmSRI-HtrI fusion, alkaline (pH 7.6-7.9) [2]: 4.49 s
B1: Sensory rhodopsin I from Haloarcula marismortui, as part of the HmSRI-HtrI fusion protein (receptor)
chain: MDAVSVVYGITAAGFAVGVAIVGFLYASLEGSDERPILAALALIPGVAGISYVAMVFGIGTVTIGETTLVGFRYLDWVVTTPLLVGFIGYTAGASRRAIFGVMAADALMILAGVGAVVAAGTLKWALFGVSAVFHISLFAYLYLIFPRSVPDDPQRIGLFSLLKNHVGLLWIAYPLVWLAGPEGLGFATYVGVSITYAFLDLLAKVPYVYFFYARRQVFATKLLRDSGDTTVTPAD

Photocycle kinetics (Tau value) of detergent-solubilized HmSRM-HtrM fusion, acidic (pH 6.1-6.5) [3]: 4.05 s
Photocycle kinetics (Tau value) of detergent-solubilized HmSRM-HtrM fusion, alkaline (pH 7.6-7.9) [3]: 5.62 s
B2: Sensory rhodopsin SRM from Haloarcula marismortui, as the N-terminal part of the SRM-HtrM fusion protein (receptor)
chain: MAQEIVWYGAGAGAFFVSAVVFVWFAATRGNIRSSFYYLPPIHTSVAGAAYVAMALIAGGQLGDTVSITTLRFADWIVSTPIITYYLARLAGVDTQTRRLAVAANVVMIGVGYGFVSMSGSLRWIAFAVSTVAFIGLLYLYIKTFARKINAATASVRSLFQSLRDLTVVTWSLYPVVYFLGPLGTGIIQAPDLNFLVAVLDTIAKVGFMSILLVRYNSVETFVDSWSVAPAK
